According to US10472401B2, “Peptides and combination of peptides for use in immunotherapy against ovarian cancer and other cancers” (immatics biotechnologies GmbH, priority 2015, dated 2019):

target: HLA-A*02:01 (Homo sapiens, UniProt P04439, D140Y/D185E/D98H/E176V/E277Q/G131W/G231S/I119V/I121R/I166T/I218V/L300P/L318F/N151K/N90K/P208A/P217A/Q86G/Q94H/R138H/R169H/T345S); experiment: MHC binding assay (UV-ligand exchange, ELISA of stabilized MHC complexes); conditions: MHC class I binding score; binding to HLA-A*02:01 ranged by peptide exchange yield (UV-ligand exchange, ELISA)
Summary of the method: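 Peptide-MHC complexes made by UV-ligand exchange, cleaving a UV-sensitive placeholder peptide and replacing it with the test peptide. Exchange yield measured by ELISA: streptavidin-captured monomers (diluted 100-fold, 1 h, 37 °C) detected with HRP anti-β2m and TMB, absorbance at 450 nm.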

| Peptide exchange | Substance |
| --- | --- |
| ″+++″ (≥50% = +++) | 601 (SAFPFPVTV; listed as Homo sapiens) [compound 601] |
| ″++++″ (≥75% = ++++) | 602 (YLLEQIKLIEV; listed as Homo sapiens) [compound 602] |
| ″+++″ (≥50% = +++) | 604 (SILDRDDIFV; listed as Homo sapiens) [compound 604] |
| ″+++″ (≥50% = +++) | 605 (KLYEAVPQL; listed as Homo sapiens) [compound 605] |
| ″+++″ (≥50% = +++) | 606 (ALWETEVYI; listed as Homo sapiens) [compound 606] |
| ″+++″ (≥50% = +++) | 607 (RLYSGISGLEL; listed as Homo sapiens) [compound 607] |
| ″+++″ (≥50% = +++) | 608 (SLLSVSHAL; listed as Homo sapiens) [compound 608] |
| ″+++″ (≥50% = +++) | 609 (ALWKQLLEL; listed as Homo sapiens) [compound 609] |
| ″+++″ (≥50% = +++) | 610 (LLAPTPYIIGV; listed as Homo sapiens) [compound 610] |
| ″++++″ (≥75% = ++++) | 611 (YLLDDGTLVV; listed as Homo sapiens) [compound 611] |
| ″+++″ (≥50% = +++) | 612 (YLYNEGLSV; listed as Homo sapiens) [compound 612] |
| ″+++″ (≥50% = +++) | 613 (RLLPPGAVVAV; listed as Homo sapiens) [compound 613] |
| ″+++″ (≥50% = +++) | 614 (LLLPDQPPYHL; listed as Homo sapiens) [compound 614] |
| ″++″ (≥20% = ++) | 615 (VLPPDTDPA; listed as Homo sapiens) [compound 615] |
| ″+++″ (≥50% = +++) | 616 (VLIDEVESL; listed as Homo sapiens) [compound 616] |
| ″+++″ (≥50% = +++) | 617 (ALMYESEKVGV; listed as Homo sapiens) [compound 617] |
| ″+++″ (≥50% = +++) | 618 (VLFDSESIGIYV; listed as Homo sapiens) [compound 618] |
| ″+++″ (≥50% = +++) | 619 (ALQDRVPLA; listed as Homo sapiens) [compound 619] |
| ″++++″ (≥75% = ++++) | 620 (KLLNKIYEA; listed as Homo sapiens) [compound 620] |
| ″++++″ (≥75% = ++++) | 621 (VLMDRLPSLL; listed as Homo sapiens) [compound 621] |
| ″+++″ (≥50% = +++) | 622 (RLLGEEVVRVLQA; listed as Homo sapiens) [compound 622] |
| ″+++″ (≥50% = +++) | 623 (YLVEDIQHI; listed as Homo sapiens) [compound 623] |
| ″+++″ (≥50% = +++) | 635 (SLDSTLHAV; listed as Homo sapiens) [compound 635] |

Further lines, the substance ahead of its results:

| Substance | Peptide exchange |
| --- | --- |
| 553 (SLLNQDLHWSL; listed as Homo sapiens) [compound 553] | ″++++″ (≥75% = ++++) |
| 554 (LLMPSSEDLLL; listed as Homo sapiens) [compound 554] | ″+++″ (≥50% = +++) |
| 555 (YVLEGLKSV; listed as Homo sapiens) [compound 555] | ″+++″ (≥50% = +++) |
| 556 (FLTDLEDLTL; listed as Homo sapiens) [compound 556] | ″+++″ (≥50% = +++) |
| 557 (KLYDDMIRL; listed as Homo sapiens) [compound 557] | ″+++″ (≥50% = +++) |
| 558 (GLLENIPRV; listed as Homo sapiens) [compound 558] | ″+++″ (≥50% = +++) |
| 559 (VTVPPGPSL; listed as Homo sapiens) [compound 559] | ″++″ (≥20% = ++) |
| 560 (ALWDIETGQQTTT; listed as Homo sapiens) [compound 560] | ″+++″ (≥50% = +++) |
| 561 (YLQLTQSEL; listed as Homo sapiens) [compound 561] | ″+++″ (≥50% = +++) |
| 562 (YLEELPEKLKL; listed as Homo sapiens) [compound 562] | ″+++″ (≥50% = +++) |
| 563 (WLLPYNGVTV; listed as Homo sapiens) [compound 563] | ″+++″ (≥50% = +++) |
| 564 (TVTNAVVTV; listed as Homo sapiens) [compound 564] | ″+++″ (≥50% = +++) |
| 565 (ALQETPTSV; listed as Homo sapiens) [compound 565] | ″++″ (≥20% = ++) |
| 566 (VIADGGIQNV; listed as Homo sapiens) [compound 566] | ″++″ (≥20% = ++) |
| 567 (SLLPLDDIVRV; listed as Homo sapiens) [compound 567] | ″+++″ (≥50% = +++) |
| 568 (TLYDIAHTPGV; listed as Homo sapiens) [compound 568] | ″++++″ (≥75% = ++++) |
| 569 (KLVDRTWTL; listed as Homo sapiens) [compound 569] | ″+++″ (≥50% = +++) |
| 570 (ALANQIPTV; listed as Homo sapiens) [compound 570] | ″++″ (≥20% = ++) |
| 571 (LLLTTIPQI; listed as Homo sapiens) [compound 571] | ″+++″ (≥50% = +++) |
| 572 (ALADLIEKELSV; listed as Homo sapiens) [compound 572] | ″+++″ (≥50% = +++) |
| 573 (ILVANAIVGV; listed as Homo sapiens) [compound 573] | ″+++″ (≥50% = +++) |
| 574 (YLLQEPPRTV; listed as Homo sapiens) [compound 574] | ″++″ (≥20% = ++) |
| 575 (YLISQVEGHQV; listed as Homo sapiens) [compound 575] | ″+++″ (≥50% = +++) |
| 576 (ILLNNSGQIKL; listed as Homo sapiens) [compound 576] | ″++++″ (≥75% = ++++) |

| Substance | Peptide exchange |
| --- | --- |
| 577 (VMFEDGVLMRL; listed as Homo sapiens) [compound 577] | ″+++″ (≥50% = +++) |
| 578 (FLDPGGPMMKL; listed as Homo sapiens) [compound 578] | ″+++″ (≥50% = +++) |
| 579 (NLMEMVAQL; listed as Homo sapiens) [compound 579] | ″++″ (≥20% = ++) |
| 580 (LLMENAERV; listed as Homo sapiens) [compound 580] | ″++″ (≥20% = ++) |
| 582 (TLCDVILMV; listed as Homo sapiens) [compound 582] | ″+++″ (≥50% = +++) |
| 583 (ILANDGVLLAA; listed as Homo sapiens) [compound 583] | ″+++″ (≥50% = +++) |
| 584 (ALAEVAAMENV; listed as Homo sapiens) [compound 584] | ″+++″ (≥50% = +++) |
| 585 (ALWDLAADKQTL; listed as Homo sapiens) [compound 585] | ″++++″ (≥75% = ++++) |
| 586 (KLKPGDLVGV; listed as Homo sapiens) [compound 586] | ″+++″ (≥50% = +++) |
| 587 (VMNDRLYAI; listed as Homo sapiens) [compound 587] | ″+++″ (≥50% = +++) |
| 588 (SLLPLSHLV; listed as Homo sapiens) [compound 588] | ″+++″ (≥50% = +++) |
| 589 (KLYPQLPAEI; listed as Homo sapiens) [compound 589] | ″+++″ (≥50% = +++) |
| 590 (SLIEKLWQT; listed as Homo sapiens) [compound 590] | ″++″ (≥20% = ++) |
| 591 (SMAELDIKL; listed as Homo sapiens) [compound 591] | ″+++″ (≥50% = +++) |
| 592 (RLLSAAENFL; listed as Homo sapiens) [compound 592] | ″+++″ (≥50% = +++) |
| 593 (GLPRFGIEMV; listed as Homo sapiens) [compound 593] | ″+++″ (≥50% = +++) |
| 594 (IMLKGDNITL; listed as Homo sapiens) [compound 594] | ″+++″ (≥50% = +++) |
| 595 (VLLSIYPRV; listed as Homo sapiens) [compound 595] | ″+++″ (≥50% = +++) |
| 596 (ALLDQTKTLAESAL; listed as Homo sapiens) [compound 596] | ″+++″ (≥50% = +++) |
| 597 (KLLEGQVIQL; listed as Homo sapiens) [compound 597] | ″+++″ (≥50% = +++) |
| 598 (FLFPHSVLV; listed as Homo sapiens) [compound 598] | ″+++″ (≥50% = +++) |
| 599 (YLLNDASLISV; listed as Homo sapiens) [compound 599] | ″+++″ (≥50% = +++) |
| 600 (ALAAPDIVPAL; listed as Homo sapiens) [compound 600] | ″+++″ (≥50% = +++) |
